These are literature values, as cited in publication PMC2775957.

One series deals with TEM8 (Homo sapiens) (UniProt Q9H6X2).
The target of a further series is CMG2 (Homo sapiens) (UniProt P58335).

For “Protective antigen (from UniProt P13423)”, the dissociation constant (Kd) was 10 nM with TEM8 (Homo sapiens) and 1 nM with CMG2 (Homo sapiens).
